Source: article PMC2475716 (The Journal of Biological Chemistry, 2008)

B1: HGF-α (domain or fragment, UniProt P14210 32-473, looked up)
chain: QRKRRNTIHEFKKSAKTTLIKIDPALKIKTKKVNTADQCANRCTRNKGLPFTCKAFVFDKARKQCLWFPFNSMSSGVKKEFGHEFDLYENKDYIRNCIIGKGRSYKGTVSITKSGIKCQPWSSMIPHEHSFLPSSYRGKDLQENYCRNPRGEEGGPWCFTSNPEVRYEVCDIPQCSEVECMTCNGESYRGLMDHTESGKICQRWDHQTPHRHKFLPERYPDKGFDDNYCRNPDGQPRPWCYTLDPHTRWEYCAIKTCADNTMNDTDVPLETTECIQGQGEGYRGTVNTIWNGIPCQRWDSQYPHEHDMTPENFKCKDLRENYCRNPDGSESPWCFTTDPNIRVGYCSQIPNCDMSHGQDCYRGNGKNYMGNLSQTRSGLTCSMWDKNMEDLHRHIFWEPDASKLNENYCRNPDDDAHGPWCYTGNPLIPWDYCPISRCEGDT
B2: HGF NK1 (domain or fragment, UniProt P14210-1 32-205, looked up)
chain: QRKRRNTIHEFKKSAKTTLIKIDPALKIKTKKVNTADQCANRCTRNKGLPFTCKAFVFDKARKQCLWFPFNSMSSGVKKEFGHEFDLYENKDYIRNCIIGKGRSYKGTVSITKSGIKCQPWSSMIPHEHSFLPSSYRGKDLQENYCRNPRGEEGGPWCFTSNPEVRYEVCDIPQ
B3: PSI-IPT (domain or fragment, UniProt P08581 516-932, looked up)
chain: NGLGCRHFQSCSQCLSAPPFVQCGWCHDKCVRSEECLSGTWTQQICLPAIYKVFPNSAPLEGGTRLTICGWDFGFRRNNKFDLKKTRVLLGNESCTLTLSESTMNTLKCTVGPAMNKHFNMSIIISNGHGTTQYSTFSYVDPVITSISPKYGPMAGGTLLTLTGNYLNSGNSRHISIGGKTCTLKSVSNSILECYTPAQTISTEFAVKLKIDLANRETSIFSYREDPIVYEIHPTKSFISGGSTITGVGKNLNSVSVPRMVINVHEAGRNFTVACQHRSNSEIICCTTPSLQQLNLQLPLKTKAFFMLDGILSKYFDLIYVHNPVFKPFEKPVMISMGNENVLEIKGNDIDPEAVKGEVLKVGNKSCENIHLHSEAVLCTVPNDLLKLNSELNIEWKQAISSTVLGKVIVQPDQNFT
B4: IPT Δ1 (domain or fragment, UniProt P08581 657-932, looked up)
chain: PVITSISPKYGPMAGGTLLTLTGNYLNSGNSRHISIGGKTCTLKSVSNSILECYTPAQTISTEFAVKLKIDLANRETSIFSYREDPIVYEIHPTKSFISGGSTITGVGKNLNSVSVPRMVINVHEAGRNFTVACQHRSNSEIICCTTPSLQQLNLQLPLKTKAFFMLDGILSKYFDLIYVHNPVFKPFEKPVMISMGNENVLEIKGNDIDPEAVKGEVLKVGNKSCENIHLHSEAVLCTVPNDLLKLNSELNIEWKQAISSTVLGKVIVQPDQNFT

Key:
Test in all cases: ELISA
Decoy Met = Decoy Met (UniProt P08581 25-932)
IPT = IPT (UniProt P08581 563-932)
active HGF = active HGF (UniProt P14210 32-494; P14210 495-728)
active HGF, sequence (P14210 495-728, one chain of several): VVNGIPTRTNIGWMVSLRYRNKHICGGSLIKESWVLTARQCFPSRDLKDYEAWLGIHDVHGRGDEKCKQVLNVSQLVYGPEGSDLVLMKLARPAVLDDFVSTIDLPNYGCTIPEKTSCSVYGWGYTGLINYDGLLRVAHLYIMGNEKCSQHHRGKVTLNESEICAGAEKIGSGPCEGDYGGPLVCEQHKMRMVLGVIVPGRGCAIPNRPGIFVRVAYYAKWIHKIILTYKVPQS

HGF-α = biological target: B1

Binder: B1
fold reduced affinity compared with active HGF (Decoy Met): 4 fold

Binder: B2
fold less tightly than active HGF (IPT): 10 times
fold reduced affinity compared with active HGF (Decoy Met): 10 fold

Binder: B3
binding result (active HGF): binds

Binder: B4
binding result (HGF-α): binds
